PMC10716038, “Talin and kindlin use integrin tail allostery and direct binding to activate integrins” (Nature Structural & Molecular Biology, 2023)
Several values for one entry are separate records, joined by “and”; a condition that tells them apart may be missing. Identical values can stand only once. Like-named read-outs stand apart in the source and are kept apart here.

T1: α5-TM lacking the cytoplasmic domain (tailless α5-TM) in nanodiscs (UniProt P11688 993-1025, biotin (biotin-maleimide))
T1 chain: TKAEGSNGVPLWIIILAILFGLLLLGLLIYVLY

T2: β1 transmembrane and cytoplasmic tail polypeptide (β1-TM–CT) in nanodiscs (UniProt P05556 726-798, biotin (biotin-maleimide))
T2 chain: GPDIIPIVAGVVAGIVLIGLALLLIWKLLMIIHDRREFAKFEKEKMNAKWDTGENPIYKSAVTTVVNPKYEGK

T3: β3 transmembrane and cytoplasmic tail polypeptide (β3-TM–CT) in nanodiscs (UniProt O54890 715-787, biotin (biotin-maleimide))
T3 chain: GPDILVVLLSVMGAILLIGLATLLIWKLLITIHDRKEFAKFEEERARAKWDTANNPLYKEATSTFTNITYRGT


Assays:
[1] = biological target: ATTO 488-labelled β1-CT (488–β1-CT) (UniProt P05556); assay: MST; ATTO 488-labelled β-CT peptide (50–200 nM) held constant, one unlabelled protein titrated; 20 mM Tris pH 7.5, 200 mM NaCl, 1 mM TCEP, 0.05% Tween-20; apparent affinities (near-saturation only)
[2] = biological target: ATTO 488-labelled β1-CT^Y783A (UniProt P05556); assay: as above
[3] = biological target: ATTO 488-labelled β1-CT^Y795A (UniProt P05556); assay: as above
[4] = biological target: ATTO 488-labelled β1–spacer–CT (UniProt P05556); assay: as above
[5] = biological target: ATTO 488-labeled β1–spacer–CT (UniProt P09055); assay: MST; apparent; THD1 titrated to 488–β1-spacer-CT in the presence of 30-35 µM KIND2; MST buffer
[6] = biological target: ATTO 488-labeled β1–spacer–CT (UniProt P09055); assay: MST; unlabelled protein titrated to 50-200 nM ATTO 488-labelled β-CT peptide, no third protein; 20 mM Tris pH 7.5, 200 mM NaCl, 1 mM TCEP, 0.05% Tween-20; Kd of individual titrations (in S0002 mean and sd, n = 2)
[7] = biological target: ATTO 488-labelled β1–spacer–CT (UniProt P05556); assay: MST; as a7, with a second unlabelled protein present at near-saturating concentration (named in the quantity or in the printed words); apparent constants (Kd,app*)
[8] = biological target: ATTO 488-labeled β1–spacer–CT (UniProt P09055); assay: MST; unlabelled protein titrated to 50-200 nM ATTO 488-labelled β-CT peptide, no third protein; 20 mM Tris pH 7.5, 200 mM NaCl, 1 mM TCEP, 0.05% Tween-20; Kd of individual titrations (in S0002 mean and sd, n = 2); remark: listed apart in the source
[9] = biological target: ATTO 488-labeled β1–spacer–CT (UniProt P09055); assay: MST; apparent; KIND2-Y13A titrated to 488–β3-CT or KIND2 to 488–β1-spacer-CT in the presence of 300-400 µM THD1; MST buffer
[10] = biological target: β1-TM–CT Y783A (THD1-binding impaired) in nanodiscs (UniProt P09055); assay: flow cytometry-based reporter-displacement assay (FC-RDA) on beads; biotinylated TM–CT in 10% PIP3/90% DMPC nanodiscs on streptavidin beads; reporter 50 nM 647–KIND2, unlabelled competitor titrated; 20 mM Tris pH 7.5, 200 mM NaCl, room temperature; IC50 of individual experiments; charged lipids contribute to the binding
[11] = biological target: ATTO 488-labelled β1–spacer–CT (UniProt P05556); assay: MST; ATTO 488-labelled β-CT peptide (50–200 nM) held constant, one unlabelled protein titrated; 20 mM Tris pH 7.5, 200 mM NaCl, 1 mM TCEP, 0.05% Tween-20; apparent affinities (near-saturation only); remark: listed apart in the source
[12] = biological target: T1, α5-TM lacking the cytoplasmic domain …; assay: FACS; 10% PIP3 nanodiscs
[13] = biological target: T4, β1-TM–CT Y783A (THD1-binding impaired) in nanodiscs (UniProt P09055 726-798, Y783A, biotin (biotin-maleimide)); assay: FACS; 10% PIP3 nanodiscs
[14] = biological target: T2, β1 transmembrane and cytoplasmic tail …; assay: FACS; 10% PIP3 nanodiscs
[15] = biological target: T5, β1-TM–CT Y795A (KIND2-binding impaired) in nanodiscs (UniProt P09055 726-798, Y795A, biotin (biotin-maleimide)); assay: FACS; 10% PIP3 nanodiscs
[16] = biological target: T1, α5-TM lacking the cytoplasmic domain …; assay: FACS; 10% PIP2 nanodiscs
[17] = biological target: T3, β3 transmembrane and cytoplasmic tail …; assay: FACS; 10% PIP2 nanodiscs
[18] = biological target: T4, β1-TM–CT Y783A (THD1-binding impaired) …; assay: FACS; 10% PIP2 nanodiscs
[19] = biological target: T2, β1 transmembrane and cytoplasmic tail …; assay: FACS; 10% PIP2 nanodiscs
[20] = biological target: T5, β1-TM–CT Y795A (KIND2-binding impaired) …; assay: FACS; 10% PIP2 nanodiscs
[21] = biological target: T3, β3 transmembrane and cytoplasmic tail …; assay: FACS; 10% PIP3 nanodiscs

Chain of ATTO 488-labelled β1-CT^Y795A (P05556 752-798 Y795A): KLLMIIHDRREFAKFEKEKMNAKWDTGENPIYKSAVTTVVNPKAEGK
Chain of ATTO 488-labelled β1-CT^Y783A (P05556 752-798 Y783A): as the sequence (P05556 752-798 Y795A) above, with Y32A, A44Y counted along it

IC50 [12] [nM]	IC50 [13] [nM]	IC50 [14] [nM]	IC50 [16] [nM]	IC50 [17] [nM]	IC50 [18] [nM]	IC50 [19] [nM]	IC50 [20] [nM]	Molecule	also measured
								TLN1-F3–ΔKIND2 fusion protein	Kd of the kindlin contribution (fit of concentrations up to 5 µM) [1]: 2.9 µM; Kd of the talin contribution (fit of concentrations above 5 µM) [1]: 25 µM; Kd [2]: 4.8 µM; Kd [3]: 470 µM
								talin-1 head domain (THD1) (from UniProt P26039 1-405) (domain or fragment)	Kd [4]: 181 µM; Kd [5]: 254 µM and 320 µM and 262 µM; Kd [6]: 178 µM and 171 µM and 193 µM; apparent Kd (Kd,app*) in the presence of KIND2 [7]: 279 µM
								kindlin-2 (KIND2) (natural protein) MALDGIRMPDGCYADGTWELSVHVTDLNRDVTLRVTGEVHIGGVMLKLVEKLDVKKDWSDHALWWEKKRTWLLKTHWTLDKCGIQADAKLQFTPQHKLLRLQLPNMKYVKVKVNFSDRVFKAVSDICKTFNIRHPEELSLLKKPRDPTKKKKKKLDDQSEDEALELEGPLIMPGSGSIYSSPGLYSKTMTPTYDAHDGSPLSPTSAWFGDSALSEGNPGILAVSQPVTSPEILAKMFKPQALLDKAKTNQGWLDSSRSLMEQDVKENEALLLRFKYYSFFDLNPKYDAIRINQLYEQAKWALLLEEIECTEEEMMMFAALQYHINKLSIMTSENHLNNSDKEVDEVDAALSDLEITLEGGKTSTILGDITSIPELADYIKVFKPKKLTLKGYKQYWCTFKDTSISCYKSREESSGTPAHQLNLRGCEVTPDVNISGQKFNIKLLIPVAEGMNEIWLRCDNEKQYAHWMAACRLASKGKTMADSSYNLEVQNILSFLKMQHLNPDPQLIPDQITTDVNPECLVSPRYLKKYKSKQITARILEAHQNVAQMSLIEAKMRFIQAWQSLPEFGITHFIARFQGGKREELIGIAYNRLIRMDASTGDAIKTWRFSNMKQWNVNWEIKMVTVEFADEVRLSFICTEVDCKVVHEFIGGYIFLSTRAKDQNESLDEEMFYKLTSGWV [kindlin-2 (KIND2), listing 1 of 2 here]	Kd [8]: 5.47 µM and 5.42 µM and 5.12 µM; Kd [9]: 6.09 µM and 3.02 µM and 8.05 µM; IC50 [10]: 297 nM and 278 nM and 387 nM; apparent Kd (Kd,app*) in the presence of THD1 [7]: 6 µM; Kd [11]: 5 µM
471	255	102	444	95	117	120	370	kindlin-2 (KIND2) (natural protein) MALDGIRMPDGCYADGTWELSVHVTDLNRDVTLRVTGEVHIGGVMLKLVEKLDVKKDWSDHALWWEKKRTWLLKTHWTLDKCGIQADAKLQFTPQHKLLRLQLPNMKYVKVKVNFSDRVFKAVSDICKTFNIRHPEELSLLKKPRDPTKKKKKKLDDQSEDEALELEGPLIMPGSGSIYSSPGLYSKTMTPTYDAHDGSPLSPTSAWFGDSALSEGNPGILAVSQPVTSPEILAKMFKPQALLDKAKTNQGWLDSSRSLMEQDVKENEALLLRFKYYSFFDLNPKYDAIRINQLYEQAKWALLLEEIECTEEEMMMFAALQYHINKLSIMTSENHLNNSDKEVDEVDAALSDLEITLEGGKTSTILGDITSIPELADYIKVFKPKKLTLKGYKQYWCTFKDTSISCYKSREESSGTPAHQLNLRGCEVTPDVNISGQKFNIKLLIPVAEGMNEIWLRCDNEKQYAHWMAACRLASKGKTMADSSYNLEVQNILSFLKMQHLNPDPQLIPDQITTDVNPECLVSPRYLKKYKSKQITARILEAHQNVAQMSLIEAKMRFIQAWQSLPEFGITHFIARFQGGKREELIGIAYNRLIRMDASTGDAIKTWRFSNMKQWNVNWEIKMVTVEFADEVRLSFICTEVDCKVVHEFIGGYIFLSTRAKDQNESLDEEMFYKLTSGWV [kindlin-2 (KIND2), listing 2 of 2 here]	IC50 [15]: 162 nM
411	427	92	274	66	307	73	98	talin-1 head domain (THD1) (domain or fragment) MVALSLKISIGNVVKTMQFEPSTMVYDACRMIRERIPEALAGPPNDFGLFLSDDDPKKGIWLEAGKALDYYMLRNGDTMEYRKKQRPLKIRMLDGTVKTIMVDDSKTVTDMLMTICARIGITNHDEYSLVRELMEEKKDEGTGTLRKDKTLLRDEKKMEKLKQKLHTDDELNWLDHGRTLREQGVEEHETLLLRRKFFYSDQNVDSRDPVQLNLLYVQARDDILNGSHPVSFDKACEFAGFQCQIQFGPHNEQKHKAGFLDLKDFLPKEYVKQKGERKIFQAHKNCGQMSEIEAKVRYVKLARSLKTYGVSFFLVKEKMKGKNKLVPRLLGITKECVMRVDEKTKEVIQEWSLTNIKRWAASPKSFTLDFGDYQDGYYSVQTTEGEQIAQLIAGYIDIILKKKKS	IC50 [21]: 83 nM
